# Data as given in the NTF2 design screens of Basanta et al. (2020).
# Assay: protease stability score; higher = more stable; yeast display proteolysis, trypsin and chymotrypsin;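 also: relative to predicted unfolded state with 0 unfolded-like and 1 meaning tenfold more protease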
row,Sequence,protease stability score
1,DEEERHVRELLREWIESLFTGDEHRLMELADPHARSHIDGVDLHGRENMHRMIHELRITDMRIRRISVRLVGDFVDVRVDGESDIYFNGQRLHTQIDIVIISSKIDGKWVIEEVHHNIE,0.763
2,DEEERIAEEMISDWIHVMRTGNEELLKDMADPHVKVYIDGRDFHGMEFLVREYRQYDHNDSELRHFTVQGNYVFSEQMLKLTVNGQTITWEVHYKSLKVDGRWIVTLILLK,1.32
3,DEEERIAKVMLKIVEKDLHTGNFETLFHLMDPHMRLEYGDKHHHGREEAYRELLEIWEELGANHYHITHRHVRLIGDKIRIHIYSIVRFNGREHHLHIDLIVTKIDGRWVMHRIIIELK,0.723
4,DEEERISEELFNFITKHWLTGDFDAVRNRLDPNVRYLINGREWHGREYARHLASHLRVERVKIENFEIQGNKITFDTRMDGEFDGQHIDVKTIIIFVKIDGKWLLHEFVIH,1.34
5,DEEERKMEEALRLMKTTHDTGDWDLERELFDPNVKMDINGRELHGRRHWEKLRKDFGLDNIRFTLRHIDSQGDFILIRGDVEINGVRLDVIIIAEKINGRWIVREVRLR,0.718
6,DEEERLDEEIMERIHKAYATGDFDEIKRLIDPHVRSDINGVDTHGRDDAIHYLHHVYRRLGFKHFELKHVESYDGRVHTDGWLRFNGQERRVEFRWQVIDGRIHSVSLRMK,0.975
7,DEEERLEREIVDHLWTNWYTGDEERMEELADPNVRLEINIGDKHIRLHGRHELLRHLHEWKERFKNIKIRLHDYRVIDGRVHLHVVYRFDGRHKTMHIELYIVNGRIKEIIHRES,1.66
8,DEEERLLDHVIKLMLQMHLTGNEEIFLNLADPHAKFYFNGVDLHGMELVSKWESEWLHHIRIRRRHIEDSRIVGDKAHIHVRVDEEIGDKKLDTHYRVDLVVINGRWHSVRIDMR,1.25
9,DEEERLLEELARLFLHLWRTGDEDTMLHLADPNTRSRINGVEQHGMELTNKFLEELLRHIRIKHLKITHSYAFDGRVFMHTLMHRTVDGKEETVWVEIILVVFNGKLKEYEVRFK,1.3
10,DEEERLLEKSIKEEIERNVTGDFRRIHELFDPNMRLDINGQEYMGRDLMVERWQKFKNVRSHIELRHYEIINGKAHVDGHLILYIDGVELRTRTRIIYVKINGRWSIQEIDIT,1.38
11,DEEERLLHEAFEELVRVWETGDEEEKLRYMDPNTIIVINGVELHGREEARKHAHHLRIHRFHLKDYRFQGDKVHLDMHIDGFINGQKMRTDVRFQVHKIDGRWVITHSIWI,1.71
12,DEEERLLLEWVRLFLTAWETGDEKLQEKLMDPHARTDFNGVQLHGREEYSRFLSQLRIRRFHVRDESIRIVGNKAESEVDGEVEGEVNGQRFKQHTEIEIHSEKINGRWLWKSLTIRIK,1.5
13,DEEERLMKELSDRFLHMKETGDEELFHKLADPNVRVEIGDKSRHGRELATEFLSWVMKELGVKHVKLHDKRTYDGRVHLNGTLEFNGREFRVRITVIIVNGRVHDIRVELE,0.771
14,DEEERLQEELTKRLIHDFETGDFEAILELFDPHVRVFVNGKDDHGWEMLERSWREMGIDHMQIRDFELHHINGRLEVRIRTEIRVGDKTMDTIIILNVQKYDGRWRIHKVEITIR,1.24
15,DEEERLRHEALKEWLETLVTGDERIIMEQLDPDARIDINGQEIHGMELFAKFMSEMGINVFDLKRTTIQGDKLRIEGVIKFNGKTHRVHVRSTKVDGRWRNKEVRVE,1.43
16,DEEERLSREILELNIEVLETGNEHVVRELLDPHVKMEVGDKEYHGREEFVTLFHHFGIDHFHIHEIRFIGNKAEMHVSSEINGRRFSILIIAHKVNGKWIMHTMHVE,-0.037
17,DEEERLTRDWAKQWIHFLETGDEDRLMELADPHVRIDVNGQEFHGREQFNKFMSHLTTHARFETKEVQVIGNKTHIDTRMSIDGKTTETLVILIIWNGRLKELRIHHH,1.47
18,DEEERLVRKFSSVVKHIFKTGDWKRFTELADPDTLLIIIIGDKEIRHHGREEITHALREWFRILGIDHFHIRDERYQGDKVELDTEVRYNGQTHDFVIEVIVVDGRAKEFKIRFR,1.67
19,DEEERLWEAAEYFFIHLLQTGDEEMVTKYADPHVRSDVNGVEYHGMNQFVEEWRRLVERIDHLESHHIDRVEIYNGVVTVHLRVHGEVNGKRDTFRVIIFMYKYNGQWRIHSYEFK,1.1
20,DEEERLWHEFLEEFLRYIITGNWKKIADLADPNVRYQQGEKTNIGREDFERHFEKTYNDLGVDHFEIDHVDIQGNKIEIHLWLRVNGQEHKIHIDVKVVNGRIKYVRIEYE,1.5
